The values that follow come from US20230332136A1, “IL-17 RECEPTOR MODULATOR SCREENING SYSTEM” (New York University, priority 2022, published 2023).

The target of experiment [1] is T1, IL-17RA/RC (Mus musculus, UniProt Q60943+Q8K4C2).
T1 construct: Full length IL-17RC in the purified ADIR system; expressed in transfected cells; host or cells: mouse embryonic fibroblasts (MEF), retrovirally transduced
T1 sequence (Q60943 32-864): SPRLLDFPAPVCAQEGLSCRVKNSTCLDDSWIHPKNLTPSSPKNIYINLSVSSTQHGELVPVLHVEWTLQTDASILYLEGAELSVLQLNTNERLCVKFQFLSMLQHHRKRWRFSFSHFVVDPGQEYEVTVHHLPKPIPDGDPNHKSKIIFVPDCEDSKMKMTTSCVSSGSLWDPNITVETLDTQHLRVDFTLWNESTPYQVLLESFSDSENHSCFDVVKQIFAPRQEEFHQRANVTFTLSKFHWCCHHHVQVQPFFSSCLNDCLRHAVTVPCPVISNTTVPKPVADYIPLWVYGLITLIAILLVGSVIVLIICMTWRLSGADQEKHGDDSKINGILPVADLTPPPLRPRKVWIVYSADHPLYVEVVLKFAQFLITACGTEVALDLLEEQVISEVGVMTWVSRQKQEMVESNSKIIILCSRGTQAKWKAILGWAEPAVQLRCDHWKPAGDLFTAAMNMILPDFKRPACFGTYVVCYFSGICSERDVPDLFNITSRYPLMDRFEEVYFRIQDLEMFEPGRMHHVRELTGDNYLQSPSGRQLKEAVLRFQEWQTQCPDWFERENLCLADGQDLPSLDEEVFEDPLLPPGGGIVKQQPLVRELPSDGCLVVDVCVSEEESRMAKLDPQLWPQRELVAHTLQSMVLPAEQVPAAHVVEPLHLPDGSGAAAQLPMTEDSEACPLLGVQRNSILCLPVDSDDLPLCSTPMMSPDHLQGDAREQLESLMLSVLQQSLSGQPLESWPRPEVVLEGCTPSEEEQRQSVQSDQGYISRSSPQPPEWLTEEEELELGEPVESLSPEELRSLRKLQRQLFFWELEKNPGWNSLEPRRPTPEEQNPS
T1 sequence (Q8K4C2 22-698): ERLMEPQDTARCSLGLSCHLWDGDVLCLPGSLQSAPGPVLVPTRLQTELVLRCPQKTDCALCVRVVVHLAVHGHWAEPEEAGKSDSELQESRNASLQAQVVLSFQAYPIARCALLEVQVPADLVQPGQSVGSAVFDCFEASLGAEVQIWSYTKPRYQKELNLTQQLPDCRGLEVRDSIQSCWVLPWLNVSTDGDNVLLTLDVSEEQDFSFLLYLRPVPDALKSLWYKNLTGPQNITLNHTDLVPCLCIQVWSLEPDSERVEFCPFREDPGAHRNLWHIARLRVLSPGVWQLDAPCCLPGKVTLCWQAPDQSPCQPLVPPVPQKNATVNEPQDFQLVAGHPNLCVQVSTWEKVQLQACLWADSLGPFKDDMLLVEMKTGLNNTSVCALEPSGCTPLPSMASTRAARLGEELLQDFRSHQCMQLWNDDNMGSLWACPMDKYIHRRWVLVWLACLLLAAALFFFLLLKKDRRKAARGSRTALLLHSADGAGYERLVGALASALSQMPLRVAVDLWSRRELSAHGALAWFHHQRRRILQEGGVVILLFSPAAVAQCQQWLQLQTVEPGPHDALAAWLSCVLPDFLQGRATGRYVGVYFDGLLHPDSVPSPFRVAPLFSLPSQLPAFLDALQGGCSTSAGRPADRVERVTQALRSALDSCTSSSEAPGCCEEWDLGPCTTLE
The experiment is described as follows: mADIR-17 dmCherry reporter assay in MEF cells (flow cytometry). The class given is cell-based. From the text: Unless defined otherwise herein, all technical and scientific terms used in this disclosure have the same meaning as commonly understood by one of ordinary skill in the art to which this disclosure pertains. Where the term “ADIR” is used herein it means ACT1-Dependent IL-17 Receptor Modulator Screening System. The preface “m” means mouse and the prefix “h” means human.
Mouse constructs were produced as depicted in the panels of FIG. 1. Human sequence constructs were produced as in the panels of FIG. 9, where mouse cDNA constructs were replaced by human cDNA constructed. In the mouse ADIR system exogenous IL-17RC was not provided because the cell line (mouse embryonic fibroblasts) have endogenous IL-17RC expression. In the hADIR system, human components used for the hADIR system (hRA, hRC, hRB, hAct1) were expressed from added polynucleotides.
The data reflected in the Figures utilized a reporter system specifically designed for Act1-dependent IL-17 signaling pathways. The reporter system is based at least in part on the principle that the engagement of active cognate ligands, and the interaction between Act1 and IL-17 receptors is required for active signaling of IL-17A/F, IL-17E, and IL-17C. The protein-protein-interaction (PPI) based reporter system is highly specific and easily scalable. The disclosure is illustrated using mouse and human systems. For the data presented in the Figures, the system comprised a three-part reporter system specifically designed for detecting IL-17A/F, IL-17E, and IL-17C signaling. The PPI-based reporter system provides for detecting active signaling, and is specific for each of the IL-17 family cytokines. The system that is responsive to binding of IL-17A and IL-17F comprises (1) an Act1-tobacco etch virus (TEV) protease fusion protein, which upon active IL-17A/F binding to the IL-17RA/RC receptor heterodimer on a target cell, will be recruited to (2) IL-17RC fused with a TEV cleavage site(TSC)-tTA (a transcriptional transactivator that binds to tetracycline responsive element, or TRE), releasing tTA, which will subsequently translocate into the nucleus where a (3) TRE-dmCherry-PEST (destabilized mCherry) element is integrated into the genome. tTA binds to the TRE to drive dmCherry expression in the target modified cell. The three described components, Act1-TEV, IL-17RC-TSC-tTA, and TRE-dmCherry-PEST, along with IL-17RA, can be delivered by retro or lenti-viral vectors or guide-RNA directed nucleases, or recombinase systems, or by homologous recombination, into mouse embryonic fibroblasts (MEF) or other mammalian cell lines, establishing stable reporter cell lines. Using the same principle, IL-17RC-TSC-tTA can be replaced with IL-17RB-TSC-tTA in the described system to provide for IL-17E (IL-25) binding, and with IL-17RE-TSC-tTA for detecting IL-17C binding. A parallel approach involves attaching the fusion protein of —TSC-tTA to the RA component and three independent system cell lines generated by supplementing RC/RB/RE, Act1-TEV, and TRE-dmCherry reporter components. Each of the retroviral vectors can contain a unique selection or fluorescent marker to enable efficient generation and maintenance of stable cell lines (for example, Puromycin resistance for m/hIL-17RC(RB, RE)-TSC-tTA; EBFP for m/hAct1-TEV; Neomycin resistance and mVenus fluorescence for TRE-dmCherry-PEST, and Thy1.1 for m/hRA).
(A reporter such as luciferase makes a cellular process visible.)

Experiment [2] relates to IL-6. As to the kind of experiment: IL-17A titration for activation of endogenous target gene IL-6 in MEF cells. It counts as cell-based, mouse. The conditions noted are these: IL-17A titration (FIG. 3B). From the text:
FIGS. 3A and 3B provide construct schematics (designed for mouse genes), and cartoon depictions of the proteins encoded by the constructs, and a graph illustrating IL-17A titrations for activation of an endogenous target gene (IL-6) in MEF cells. […] FIG. 3A: schematics of functional units of the retroviral transfer plasmid constructs used to build the mouse ADIR system.

B1: IL-17A: mouse IL-17 family cytokine, cognate ligand of IL-17RA/RC, used as agonist in the mADIR-17 system (protein, UniProt Q62386 26-158, looked up)
Interleukin-17A: AAIIPQSSACPNTEAKDFLQNVKVNLKVFNSLGAKVSSRRPSDYLNRSTSPWTLHRNEDPDRYPSVIWEAQCRHQRCVNAEGKLDHHMNSVLIQQEILVLKREPESCPFTFRVEKMLVGVGCTCVASIVRQAA
On to B1, for which the dmCherry signal produced in experiment [1] (0.4 ng/ml, after 24 hrs (FIG. 7)) was 5.75%; in experiment [1] (2 ng/ml, after 24 hrs (FIG. 7)), 24.6%; in experiment [1] (10 ng/ml, after 24 hrs (FIG. 7)), 43.6%; in experiment [1] (50 ng/ml, after 24 hrs (FIG. 7)), 55.1%; in experiment [1] (100 ng/ml, after 24 hrs (FIG. 6I)), 25%; in experiment [1] (100/2 ng/ml, after 24 hrs (FIG. 6H)) it was 24.5%. Moreover, the dmCherry signal produced in experiment [1] (100/(2^2) ng/ml, after 24 hrs (FIG. 6G)) was determined as 21.9%; in experiment [1] (100/(2^3) ng/ml, after 24 hrs (FIG. 6F)) it was 19.9%; in experiment [1] (100/(2^5) ng/ml, after 24 hrs (FIG. 6D)), 12.6%; in experiment [1] (100/(2^6) ng/ml, after 24 hrs (FIG. 6C)) it was 8.69%; in experiment [1] (100/(2′7) ng/ml, after 24 hrs (FIG. 6B)), 5.36%. In addition, in experiment [1] (50 ng/ml, 24 hr after plating (FIG. 5B)), the “cells turning on dmCherry signal” value is 27.2%. Moreover, the dmCherry produced in experiment [1] (100/(2^4) ng/ml, after 24 hrs (FIG. 6E)) is 17.6%. Moreover, the “EC50 (sensitivity, dose-dependent dmCherry response)” value in experiment [1] (mIL-17A/F system, three parameter [Agonist] vs. response fit (FIG. 6J)) came to 3.556 ng/mL. The “activation of endogenous target gene (IL-6)” value in experiment [2] was “upregulation of IL-6”.
